The values below come from publication PMC6751209.

The target in this assay is 53BP1 (UniProt Q12888). Nature of the assay: FLAG-53BP1 IP, Myc-PP4R3β immunoblot. Particulars: reference: wild type, mitotic cells; sites S840. In general terms: A western blot detects proteins with antibodies after separation by electrophoresis.

With “PP4R3β (from UniProt Q5MIZ7) S840A, mitotic cells”, the “binding against the reference” value is recorded as “weaker”.
